Measurements taken from the nanobody polyreactivity screen of Harvey et al. (2022).

Assay: yeast display, Sf9 membrane polyspecificity reagent, FACS + sequencing; frameworks hold sequencing errors
Outline: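 A synthetic nanobody library was expressed on Saccharomyces cerevisiae BJ5465 by galactose induction for 36–48 hours. The library was stained for 1 hour at 4 °C with 10% biotinylated, detergent-solubilized Sf9 membrane reagent and enriched with streptavidin microbeads before FACS. Low and high (top ~1%) gates were set on anti-HA fluorescence for expression and streptavidin fluorescence for reagent binding, and each polyreactivity label reflects the gate of origin.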

Row | Sequence | polyreactivity (PSR sort gate)
1 | QVQLVESGGGIVQAGGSLRLSCAASGRTFSTYAMGWYRQAPGKESELVARITSSGGSTYYADSVKGRFTISRDNAKNTVYFQMNSLKPEDTAVYYCAARPLVRYRMQWTGGYYYWGQGTQVTVSS | high polyreactivity
2 | QVQLVESGGGIVQAGGSLRLSCAASGRTFYDYAMGWYRPAPGKERELVAAISRRAGSTYYADSVKGRFTISRDISKNSVYLQMISLNPEDTAVYFCAAAYSRRWWRGHHYAFDYWGQGTQVTVSS | high polyreactivity
3 | QVQLVESGGGIVQAGGSLRLSCAASGRTLQIYAMGRYRQAPGKERELVAAISSSGGSTYYADSVKGRFTISRDNEKNTVYLQMNSLKPEDTAVYYCAVDGYGYKDDYWGQGTQVTVSS | high polyreactivity
4 | QVQLVESGGGIVQAGGSLRLSCAASGRTLSKNAMGWYRQAPGKERELVATISSVGRTNYADSVKGRFTISRDNAKNTVYLQMNSLKPEDTAVYNCAARRFRGSYYWGQGTQVTVSS | high polyreactivity
5 | QVQLVESGGGIVQAGGSLRLSCAASGSIFDKNAMGWYRQAPGKERELVAAIDSGDTYYADSVKGRFTISRDNAKNTVYLQMNSLKPEDTAVYYCAADDVQYEYDYWGQGPQVTVSS | low polyreactivity
6 | QVQLVESGGGIVQAGGSLRLSCAASGSIFGGNALGWDRQAPGKERELVAAITWSGTSTYYADSVKGRFTISRDNAKNTVYLQMNSLKPEDTAVYYCNADYKSTDFRYSGSRNYWGQGTQVTVSS | low polyreactivity
7 | QVQLVESGGGIVQAGGSLRLSCAASGSIFIDYAMGWYRQAPGKERELVAAISWRGGSTYYADSVKGRFTISRDNAKNTVFLQMIRLKPEDTAVYYCAGARRSKRHEYYLGQGTQVTVSS | high polyreactivity
8 | QVQLVESGGGIVQAGGSLRLSCAASGSIFKRYAMGWYRQAPGKERELVAAISWSGGNTYYADSVKGRFTISRDNAKYTVYLQMNILKPEDTAVYYCNAGYSYFGPGRGRFRYYYWGQGTQVTVSS | high polyreactivity
9 | QVQLVESGGGIVQAGGSLRLSCAASGSIFRRNAMGWYRQSPGKEMEMVASISRGGSTYYADSVKGRFTISRDNAKNTVYLQMNSLKPEDTSVYYCNVVPRWLSWVPTTRRIGDDDYWGQGTQVTVSS | high polyreactivity
10 | QVQLVESGGGIVQAGGSLRLSCAASGSILGYYVMGWYRQAPGIESELVAAISWSSGSTYYADSVKGRFTISRDNAKNTVYLQMNSLIPEDTAVYFCAAPIGDVYVGKGYDSWGQGTQVTVSS | low polyreactivity
11 | QVQLVESGGGIVQAGGSLRLSCAASGSILSTYAMGWYRQAPGKERELVDSISSNAGSTYYSDSVKGRFTISRDNAKNTVYLQMNSLKPEDSAVYYCNKVYGGGTYDYWGQGTQVTVSS | low polyreactivity
12 | QVQLVESGGGIVQAGGSLRLSCAASGSIVGQYAMGWYRQPPGKERELVAAITSGGRTNYADSVTGRFTISRDNAKNTVYVQMNRLKPEDTAVYYCAARGWVWYYWGQGTQVTVSS | high polyreactivity
13 | QVQLVESGGGIVQAGGSLRLSCAASGSTFGSYAMGWYRQAPGKVRELVAAIYRAGSTYADSVKGRFTISRDNAKYTVYFQMNSLKPEDTAVYYCAKRDNALYYGYDYWRQGTQVTVSS | low polyreactivity
14 | QVQLVESGGGIVQAGGSLRLSCAASGSTFILNAMGWYRQAPGKERALVATISSSDTSTYYADSVKGRFTISRDNAKNTVYLQMNSLKPEDTAVYYCNADDYTTSYLQRVYHYGVEYYYWGQGTQVTVSS | low polyreactivity
15 | QVQLVESGGGIVQAGGSLRLSCAASGSTFRAYVMGWSRPAPGKERELVAAITYRGTSTYYADSVKGRFTISRDNAKYTVYLQMNSLKPEDTAVYYCAARRLYTRGTYDYWGLGTQVTVSS | high polyreactivity
16 | QVQLVESGGGIVQAGGSLRLSCAASGSTFVDNAMGWYRQAPGKERELVAAITTSVGSTYYADSVKGRFTISRDNAKNTVYLQMNSLKPEDTAVYYCAATVFSTYPYGYGSTFVRDDYWGQGTQVTVSS | low polyreactivity
17 | QVQLVESGGGIVQAGGSLRLSCAASGSTFVTNVMGWYRQAPGKERELVAAISYSGGNTYYEDSVKGRFTISRDNANNTVYLHMNSLKPEDTAVYYCNAYRVVHPCEYDYWGQGTQVTVSS | high polyreactivity
18 | QVQLVESGGGIVQAGGSLRLSCAASGSTFWIYAMGWYRQAPGKERELVAAISWRGGRTYYADSVKGRFTISRDNAKNTVYLQMNSLKPQDTAVYYCNAQKRDGSMGYWGQGTQVTVSS | high polyreactivity
19 | QVQLVESGGGIVQAGGSLRLSCAASGSTIDKNAMGWYRQAPGKERELVAAINNGGGTTYYADSVKGRFTISRDNAKNTVFLQMNSLKPEDTAVYYCAAVGKAYWSDYQYRYYYWGQGTQVTVSS | low polyreactivity
20 | QVQLVESGGGIVQAGGSLRLSCAASGSTLEPNAMGWYRQAPGKERELVAAITIGGSTYYADSVKGRFTISRDNAKYTVYLQMNSLKPEDTAVYYCAAKSTVQRRRHTNYDYWGQGTQVTVSS | high polyreactivity
21 | QVQLVESGGGIVQAGGSLRLSCAASGSTLHSYALGWYRQAPGKERELVAAISFRGGSTYADSVKGRFTISRDNAKNTVYVQMNSLKPEDTAVYYCATRRTRADWYIVGYDYWGQGTQVTVSS | low polyreactivity
22 | QVQLVESGGGIVQAGGSLRLSCAASGSTLTIYAMGWYRQAPGKERELVAAISRSGGRTYYADSVKGRFTISRDNAKNTVYLQMNSLKPEDTAVYYCATQPVRDRPGGSRKKYYYWGLGTQVTVSS | high polyreactivity

Row | Sequence | polyreactivity (PSR sort gate)
23 | QVQLVESGGGIVQAGGSLRLSCAASGYTFAKYAMGWYRQEPGKERELVAAISSSGGRTYYADSVKGRFTISRDIAKNTVYLQMNSLKPEDTAVYYCNAYGQRDYWGQGSQVTVSS | high polyreactivity
24 | QVQLVESGGGIVQAGGSLRLSCAPSGFIFRVYTMGWYRQAPGKERELVAAISYRGGRTYYADSVKGRFTISRDNAKNSVYLQMNILKPEDTAVYYCAAERVNREFDYWGQGTLVTVSS | high polyreactivity
25 | QVQLVESGGGIVQAGGSLRLSCDASGRIFTGNVMGWYRQAPGKERELVAAISRRGGGTYYADSVKGRFTISRDNAKNTVYLQMNSLIPEDTALYYCDAQYRSQGQPKGCVLYYYWVQGTQVTVSS | high polyreactivity
26 | QVQLVESGGGIVQAGGSLRLSFAASGSIFEGNALGWYRQEPGKEMEFVAAITKRGGSTYYADSVKGRFTISRDNAKNTVYLQMIWLKPEDTAGYYCAADRSYPRAGRYNYWGQGTQVTVSS | low polyreactivity
27 | QVQLVESGGGIVQAGGSLRLSSAASGITFGANAMGWYRQAPGKERELVADITWSGGDTYYADSVKGRFTSSRDNAKNSVYLQMNSLKPEDTAVYYCNALQPGLGSPLGEYDYWGQGTQVTVSS | low polyreactivity
28 | QVQLVESGGGIVQAGGSLRLSSAASGSTFYAYTMGWYRQAPGKERELVAAISSGGGTYYADSVKGRFTISRDNAKNTVYLQMNSLKPEDTAVYYCNADWRVGRQLSKAKIPYDYWGQGTQVTVSS | low polyreactivity
29 | QVQLVESGGGIVQAGGSLRLSWAASGRIFYAYAMRWSRQAPGKERELVASLSGGGSTDYADSVKGRFTISRDNAKNTVVLQMNSLKPEDTAVYYCAAQYYLYRSRFDYWGQGTLVTVSS | high polyreactivity
30 | QVQLVESGGGIVQAGGSLRVSCAASGRIFRRHNMGWYRQAPGKERELVAAITSSGGSTYADSVKGRFTISRDNAQNTVYLQMNSLKPEDTAVYYCATYVAYHRGYRTYDHWGQGTQVTVSS | low polyreactivity
31 | QVQLVESGGGIVQAGGSLRVSFAASGLIFYRYAMGWYRQAPGKERELVAAISSAGSTYYADSVKGRFPISRDNAKNTVYLQMNSLKPEDTAVYYCAKKKLLSVPPRGYVYVYYWGQGTQVTVSS | high polyreactivity
32 | QVQLVESGGGIVQAGRSLRLRCAASGFIFRYYTMGWYRQAPGKEREFVAAITSRGGSTYYSDSVKGRFTISRDNAKNTVYLQMNSLKPEDTAVYDCATTRWGYEYWGQGSQVTVSS | high polyreactivity
33 | QVQLVESGGGIVQAGRSLRLSCAASGSIFDFNAMGWYRQAPGKERELVAAITWGGGSTYYAYSVKGRFTNSRDNEKNTVYLQIKSLKPEDTAVYYCNAAYGRYRYDYWGQGTQVTVSS | low polyreactivity
34 | QVQLVESGGGIVQAGVSLRLSCAASGRTFWTNAMGWYRQAPGKERELVAVISTTTGNTYYADSVKGRFTISRDNAKNTVYLQMNSLKPEDTAVYYCNTRTGAFFLSKPYYYWGQGTQVTVSS | low polyreactivity
35 | QVQLVESGGGIVQAGVSLRLSCAASGSTFESNAMGWYRQAPGKECELVASISGSGGSTFYADSVKGRFTISRDNAKNTVYLHMNSLKPEDTARYYCAAYKEPYYEESGYWGQVTQVTVSS | low polyreactivity
36 | QVQLVESGGGIVQAGVSLRLSCAASGSTFVRYAMGWYRPAPGKERELVAAISGGGSTSYADSVKGRFTISRDNAKNTVYLQMNSLKPEDTAVYYCAAEKYRWENDAYQYYTFDYWGQGTQVTVSS | low polyreactivity
37 | QVQLVESGGGKVQAGGSLRLSCAATGRNFGVYDMGSYRHSPGKERELVAAITARGGSTYYADSVKGRFTISRDNAKNTVYLQMNSLKPEDTAVYYCAASAGSAGHSGGYWGQGTQVTVSS | high polyreactivity
38 | QVQLVESGGGLDQAGASLRLSCPASGRTFNANVMGWYRQAPGKERELVAAISTGGSTNYADSVKGRFTISRDNAKNTVYLQMNSLKPEDTAVYYCAAAIRVPQGGYYYWGQGTQVTVSS | low polyreactivity
39 | QVQLVESGGGLDQAGGRLRLICAASGNTFRFYTLGWYRQAPGQETEFVAAINSSGRTNYADSVKGRFTISRDNATNTVYLQMNSLKPEDTAVYYCAADYYQRSTFLGVDEYDYWGQGTQVTVSS | low polyreactivity
40 | QVQLVESGGGLDQAGGRLRLSCAASGSTFLLYAMGWYRQAPGKERELVAAIDTGDSTNYADSVKGRFTISRDNAKNTVYLQMNSLKREDTAVYYCNADSFPALNKRGYDYWGQGTQVTVSS | low polyreactivity
41 | QVQLVESGGGLDQAGGSIRLSCAASGFIYDGNAMGSYRQAPGKERELVAAISSGGGTTYYADSVKGRFTISRDNAKNTVYLQMNSLKPEDTAVYYCADDALSDEYDYWGQGTQVTVSS | low polyreactivity
42 | QVQLVESGGGLDQAGGSLLLSCAASGSIFRSNAMGWYRQAPRKERELVAAIDYSGTSTTYADSVKGRFSISRDNAKNTVYLQMNSLKPEDTAVYYCNADGYYRGYWSGYEYWGQGTQGTVSS | low polyreactivity
43 | QVQLVESGGGLDQAGGSLLLSCPASGRTFGTYAMGLYRQAPGKERELVASITSGDSTNYADSVKGRFTISRDNAKYTVYLQMNSQKPEDTAVYYCNASGYVMVTPPKLSFNYEYWGQGTQVTVSS | low polyreactivity
